According to PMC2903388:

Assays:
[1] = target: Mouse tail tendon type I collagen heterotrimer α1(I)2α2(I) (mouse) (UniProt P11087); assay: equilibrium microdialysis
[2] = target: Mouse tail tendon type I collagen homotrimer α1(I)3 (mouse) (UniProt P11087); assay: equilibrium microdialysis
Chain of Mouse tail tendon type I collagen homotrimer α1(I)3 (mouse) (P11087 152-1207): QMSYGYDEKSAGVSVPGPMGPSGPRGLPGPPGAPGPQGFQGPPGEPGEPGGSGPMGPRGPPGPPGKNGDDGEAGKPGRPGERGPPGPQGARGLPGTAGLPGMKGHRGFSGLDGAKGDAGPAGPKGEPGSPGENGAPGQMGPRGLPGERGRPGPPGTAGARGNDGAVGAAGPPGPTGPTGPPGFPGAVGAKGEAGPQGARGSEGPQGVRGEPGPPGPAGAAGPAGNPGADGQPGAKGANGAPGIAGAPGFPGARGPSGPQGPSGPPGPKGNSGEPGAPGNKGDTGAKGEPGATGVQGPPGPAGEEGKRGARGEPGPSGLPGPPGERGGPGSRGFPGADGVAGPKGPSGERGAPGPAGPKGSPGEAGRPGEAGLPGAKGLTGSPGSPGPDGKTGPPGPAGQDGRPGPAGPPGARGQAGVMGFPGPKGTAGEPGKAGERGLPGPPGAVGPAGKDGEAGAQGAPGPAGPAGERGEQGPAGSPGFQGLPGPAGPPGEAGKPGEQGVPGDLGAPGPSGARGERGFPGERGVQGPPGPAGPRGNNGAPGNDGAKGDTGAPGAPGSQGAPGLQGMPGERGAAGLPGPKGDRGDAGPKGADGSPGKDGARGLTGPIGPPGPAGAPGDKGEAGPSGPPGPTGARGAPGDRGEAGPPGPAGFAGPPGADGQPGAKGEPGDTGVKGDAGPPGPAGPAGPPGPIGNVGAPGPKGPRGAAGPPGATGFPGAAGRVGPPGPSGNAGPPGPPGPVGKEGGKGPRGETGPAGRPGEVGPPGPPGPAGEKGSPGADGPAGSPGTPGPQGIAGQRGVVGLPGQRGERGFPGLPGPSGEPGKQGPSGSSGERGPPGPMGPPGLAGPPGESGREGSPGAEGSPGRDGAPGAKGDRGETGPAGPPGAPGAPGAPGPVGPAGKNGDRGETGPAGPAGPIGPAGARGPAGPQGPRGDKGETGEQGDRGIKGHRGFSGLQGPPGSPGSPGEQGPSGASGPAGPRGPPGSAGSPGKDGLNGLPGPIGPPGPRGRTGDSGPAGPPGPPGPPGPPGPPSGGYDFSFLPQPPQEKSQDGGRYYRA

Chain of Mouse tail tendon type I collagen heterotrimer α1(I)2α2(I) (mouse) (P11087 152-1207, chain 1 of 2): as the sequence (P11087 152-1207) above
Chain of Mouse tail tendon type I collagen heterotrimer α1(I)2α2(I) (mouse) (Q01149 86-1125, chain 2 of 2, further chain): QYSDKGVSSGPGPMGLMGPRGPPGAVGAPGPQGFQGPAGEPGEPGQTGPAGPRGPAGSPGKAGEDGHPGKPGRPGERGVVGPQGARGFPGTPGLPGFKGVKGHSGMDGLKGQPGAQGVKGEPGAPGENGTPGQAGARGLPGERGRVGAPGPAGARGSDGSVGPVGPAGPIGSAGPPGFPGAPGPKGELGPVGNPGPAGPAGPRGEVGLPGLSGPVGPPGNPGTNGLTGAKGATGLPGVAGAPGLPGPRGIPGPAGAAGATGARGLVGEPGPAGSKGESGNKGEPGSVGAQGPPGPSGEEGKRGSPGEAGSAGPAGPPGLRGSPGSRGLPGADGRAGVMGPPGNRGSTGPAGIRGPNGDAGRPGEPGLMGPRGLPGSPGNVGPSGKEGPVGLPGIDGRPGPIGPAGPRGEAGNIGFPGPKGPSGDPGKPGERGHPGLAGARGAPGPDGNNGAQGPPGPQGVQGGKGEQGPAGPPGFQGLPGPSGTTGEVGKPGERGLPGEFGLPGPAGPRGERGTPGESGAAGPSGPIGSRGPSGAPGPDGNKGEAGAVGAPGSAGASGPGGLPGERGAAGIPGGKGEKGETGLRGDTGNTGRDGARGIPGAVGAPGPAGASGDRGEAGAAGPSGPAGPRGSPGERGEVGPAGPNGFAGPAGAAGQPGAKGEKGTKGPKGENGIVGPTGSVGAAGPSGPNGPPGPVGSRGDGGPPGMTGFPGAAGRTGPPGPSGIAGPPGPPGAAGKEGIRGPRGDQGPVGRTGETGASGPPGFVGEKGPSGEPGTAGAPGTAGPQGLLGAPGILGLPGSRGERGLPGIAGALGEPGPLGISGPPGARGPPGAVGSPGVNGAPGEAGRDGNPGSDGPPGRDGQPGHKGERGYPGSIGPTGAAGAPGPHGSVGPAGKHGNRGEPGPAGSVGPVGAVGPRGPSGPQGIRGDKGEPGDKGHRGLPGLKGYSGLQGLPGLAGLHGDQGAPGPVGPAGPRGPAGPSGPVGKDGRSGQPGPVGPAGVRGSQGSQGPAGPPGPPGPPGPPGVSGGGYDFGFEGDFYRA

MMP-1(E200A), activated recombinant human fibroblast collagenase with Glu-200 substituted with Ala (enzyme)
KD, high-affinity site [1]: 1300 nM | KD, low-affinity sites [1]: > 50000 nM | N, high-affinity site (MMP-1(E200A) per collagen triple helix) [1]: 1 | KD, high-affinity site [2]: 1300 nM | KD, low-affinity sites [2]: > 50000 nM | N, high-affinity site (MMP-1(E200A) per collagen triple helix) [2]: 1
